91 sequences from the supplement of paper PMC9112550, “Optimization of the antimicrobial peptide Bac7 by deep mutational scanning” (BMC Biology, 2022) can be followed below.

The data set relates to Escherichia coli TOP10. Briefly: shrunken log2 fold change of peptide-encoding DNA abundance (4.5 h post-induction vs induction); higher = less antimicrobial activity (less host growth inhibition). The conditions noted are these: time post-induction: 4.5 h; library: site-saturation at positions 5, 18, 19, 20.
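Note: peptides expressed intracellularly from a pBAD plasmid library in pooled LB shake-flask culture, induced with 0.3% L-arabinose, DNA abundance read by NGS, three biological replicates, DESeq2 with apeglm shrinkage.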

As to RRIRERPPRLPRPRPRPLMIPRP, the “shrunken log2 fold change” value was -0.348. As to RRIRNRPPRLPRPRPRPGNIPRP, the “shrunken log2 fold change” value was -0.161. The figure for RRIRGRPPRLPRPRPRPQIFPRP is -0.0563; for RRIRFRPPRLPRPRPRPISSPRP it is -0.0616. In the case of RRIRGRPPRLPRPRPRPSWYPRP, the “shrunken log2 fold change” value is -0.102. Regarding RRIRPRPPRLPRPRPRPKRMPRP, the “shrunken log2 fold change” value worked out at 0.139. To RRIRMRPPRLPRPRPRPLHPPRP belongs 0.439; to RRIRLRPPRLPRPRPRPRYEPRP, -0.286; to RRIRNRPPRLPRPRPRPCAEPRP, -0.169. For the sequence RRIRMRPPRLPRPRPRPIPFPRP, the “shrunken log2 fold change” value was determined as 0.146. To RRIRARPPRLPRPRPRPCPNPRP belongs -0.0809. Consider RRIRSRPPRLPRPRPRPNCQPRP, for which the “shrunken log2 fold change” value is -0.0974.

Take RRIRQRPPRLPRPRPRPLVMPRP: the “shrunken log2 fold change” value is -0.107. Take RRIRRRPPRLPRPRPRPKISPRP: the “shrunken log2 fold change” value turned out to be 0.14.

On to RRIRLRPPRLPRPRPRPGYGPRP, for which the “shrunken log2 fold change” value was found to be 0.0339. As to RRIRMRPPRLPRPRPRPMWAPRP, the “shrunken log2 fold change” value amounted to 0.392.

Consider RRIRFRPPRLPRPRPRPRFPPRP, for which the “shrunken log2 fold change” value was 0.0497. As for RRIRNRPPRLPRPRPRPDWTPRP, the “shrunken log2 fold change” value was -0.0129.

Regarding RRIRTRPPRLPRPRPRPKQGPRP, the “shrunken log2 fold change” value came to 0.0588. In the case of RRIRIRPPRLPRPRPRPAGDPRP, the “shrunken log2 fold change” value stood at 0.0386. With RRIRGRPPRLPRPRPRPRDYPRP, the “shrunken log2 fold change” value amounted to 0.258. The figure for RRIRSRPPRLPRPRPRPHFPPRP is -0.397; for RRIRGRPPRLPRPRPRPGNRPRP it is 0.333. As to RRIRTRPPRLPRPRPRPCAWPRP, the “shrunken log2 fold change” value is -0.277. Regarding RRIRDRPPRLPRPRPRPWFRPRP, the “shrunken log2 fold change” value is -0.44. For RRIRKRPPRLPRPRPRPKGGPRP, the “shrunken log2 fold change” value turned out to be 4.1. As for RRIRRRPPRLPRPRPRPEHSPRP, the “shrunken log2 fold change” value was 0.143.

As for RRIRQRPPRLPRPRPRPVWHPRP, the “shrunken log2 fold change” value was determined as 0.0663. Consider RRIRMRPPRLPRPRPRPASGPRP, for which the “shrunken log2 fold change” value is 0.652. With RRIRFRPPRLPRPRPRPVRNPRP, the “shrunken log2 fold change” value is 0.077.

On to RRIRARPPRLPRPRPRPYDCPRP, for which the “shrunken log2 fold change” value is -0.131. With RRIRVRPPRLPRPRPRPTVGPRP, the “shrunken log2 fold change” value was 0.553. Regarding RRIRTRPPRLPRPRPRPINTPRP, the “shrunken log2 fold change” value is -0.687.

On to RRIRPRPPRLPRPRPRPYTNPRP, for which the “shrunken log2 fold change” value was -0.709. As for RRIRQRPPRLPRPRPRPEETPRP, the “shrunken log2 fold change” value is -0.0125. RRIRNRPPRLPRPRPRPVMDPRP: the “shrunken log2 fold change” value was determined as 0.0106. For RRIRKRPPRLPRPRPRPKMYPRP, the “shrunken log2 fold change” value was -0.0411. Take RRIRVRPPRLPRPRPRPPCAPRP: the “shrunken log2 fold change” value amounted to 0.238. On to RRIRDRPPRLPRPRPRPEYSPRP, for which the “shrunken log2 fold change” value was determined as 0.0929.

In the case of RRIRIRPPRLPRPRPRPLSLPRP, the “shrunken log2 fold change” value was -0.868. To RRIRWRPPRLPRPRPRPKPWPRP belongs 0.515; to RRIRKRPPRLPRPRPRPGAEPRP, 1.26. As for RRIRMRPPRLPRPRPRPGIAPRP, the “shrunken log2 fold change” value turned out to be 1.11.

Regarding RRIRVRPPRLPRPRPRPESDPRP, the “shrunken log2 fold change” value came out at 0.0889. For RRIRRRPPRLPRPRPRPMWHPRP, the “shrunken log2 fold change” value was -0.03. As for RRIRLRPPRLPRPRPRPIVAPRP, the “shrunken log2 fold change” value was -0.0323. Regarding RRIRCRPPRLPRPRPRPFCTPRP, the “shrunken log2 fold change” value is -0.401. Regarding RRIRHRPPRLPRPRPRPGCSPRP, the “shrunken log2 fold change” value is -0.08. As for RRIRNRPPRLPRPRPRPWNVPRP, the “shrunken log2 fold change” value was found to be 0.00489. RRIRLRPPRLPRPRPRPMMLPRP: the “shrunken log2 fold change” value is -0.335.

Consider RRIRQRPPRLPRPRPRPFCVPRP, for which the “shrunken log2 fold change” value is -0.0258. As for RRIRARPPRLPRPRPRPDLIPRP, the “shrunken log2 fold change” value turned out to be 0.235. On to RRIRWRPPRLPRPRPRPDNCPRP, for which the “shrunken log2 fold change” value was -0.015. As for RRIRIRPPRLPRPRPRPLGQPRP, the “shrunken log2 fold change” value was -0.00501. The figure for RRIRYRPPRLPRPRPRPMFDPRP is -1.4; for RRIRIRPPRLPRPRPRPVWCPRP it is 0.148. The figure for RRIRERPPRLPRPRPRPPFVPRP is 0.072; for RRIRIRPPRLPRPRPRPKEYPRP it is -0.728; for RRIRVRPPRLPRPRPRPAYGPRP it is -0.473. As to RRIRSRPPRLPRPRPRPTYFPRP, the “shrunken log2 fold change” value is -0.563. With RRIRRRPPRLPRPRPRPFNGPRP, the “shrunken log2 fold change” value came out at 0.0131. RRIRKRPPRLPRPRPRPSFTPRP: the “shrunken log2 fold change” value was -0.272. For RRIRNRPPRLPRPRPRPYFSPRP, the “shrunken log2 fold change” value was -0.225. As to RRIRQRPPRLPRPRPRPSTKPRP, the “shrunken log2 fold change” value is 0.0644.

Turning to RRIRSRPPRLPRPRPRPTLGPRP, the “shrunken log2 fold change” value amounted to 0.378.

Turning to RRIRHRPPRLPRPRPRPAWGPRP, the “shrunken log2 fold change” value was determined as 0.542.

Consider RRIRYRPPRLPRPRPRPYRMPRP, for which the “shrunken log2 fold change” value is -0.725.

Take RRIRIRPPRLPRPRPRPQWAPRP: the “shrunken log2 fold change” value is 0.0405. To RRIRARPPRLPRPRPRPYSEPRP belongs -0.339; to RRIRTRPPRLPRPRPRPMYEPRP, -0.375. As for RRIRCRPPRLPRPRPRPWNMPRP, the “shrunken log2 fold change” value is -0.316. In the case of RRIRGRPPRLPRPRPRPPDPPRP, the “shrunken log2 fold change” value was 1.57. As to RRIRPRPPRLPRPRPRPELTPRP, the “shrunken log2 fold change” value amounted to 0.537.

Take RRIRSRPPRLPRPRPRPNHAPRP: the “shrunken log2 fold change” value was -0.278. Regarding RRIRLRPPRLPRPRPRPEDQPRP, the “shrunken log2 fold change” value was found to be 0.22. On to RRIRYRPPRLPRPRPRPDFGPRP, for which the “shrunken log2 fold change” value was -0.251. RRIRGRPPRLPRPRPRPNVDPRP: the “shrunken log2 fold change” value is 0.715. The figure for RRIRHRPPRLPRPRPRPIGYPRP is 0.0062; for RRIRRRPPRLPRPRPRPTGPPRP it is 0.369. To RRIRMRPPRLPRPRPRPATRPRP belongs 1.58. RRIRTRPPRLPRPRPRPRHCPRP: the “shrunken log2 fold change” value is -0.0723. The figure for RRIRHRPPRLPRPRPRPQPKPRP is 0.24; for RRIRIRPPRLPRPRPRPIPMPRP it is -0.705; for RRIRLRPPRLPRPRPRPMDCPRP it is -0.0117. For RRIRDRPPRLPRPRPRPCEEPRP, the “shrunken log2 fold change” value was -0.187. To RRIRYRPPRLPRPRPRPREGPRP belongs 0.251; to RRIRGRPPRLPRPRPRPYENPRP, -0.0711. The figure for RRIRHRPPRLPRPRPRPKIQPRP is -0.484; for RRIRVRPPRLPRPRPRPMTMPRP it is -0.0831; for RRIRCRPPRLPRPRPRPWPMPRP it is 0.168. Take RRIRGRPPRLPRPRPRPNIAPRP: the “shrunken log2 fold change” value came out at 0.197.
